Test results from patent US20110135662A1 (UCB, published 2011).
Positions count from the first letter of the chain named. Where no end group is shown, it is not given here.

T1: A32-CTLESIMNTLESEEDFRKY (cyclic) (human, also: biotinylated in screening assay, position not given here)
T1 construct: Human Nav1.7 peptide; also called Nav1.7 peptide A32
T1 peptide: cyclo(CTLESIMNTLESEEDFRKY)

T2: B11-CPMTEEFKN (cyclic) (human, also: biotinylated in screening assay, position not given here)
T2 construct: Human Nav1.7 peptide; also called Nav1.7 peptide B11
T2 peptide: cyclo(CPMTEEFKN)

T3: B11.7 Cyclo[biotinyl-PEG-cysPMTEEFKN] (not fully specified; cyclic; biotinyl-PEG on the cysteine)
T3 construct: also called B11.7 peptide; Nav 1.7 peptide
T3 peptide: CPMTEEFKN

T4: B11.5 Cyclo[biotinyl-PEG-cysEHYNMTSEFEE] (not fully specified; cyclic; biotinyl-PEG on the cysteine)
T4 construct: also called Nav 1.5 E1 peptide
T4 peptide: CEHYNMTSEFEE

T5: B11.1 Cyclo[biotinyl-PEG-cysEHYPMTDHFNN] (not fully specified (N-terminus, bridges); printed as Cyclo[biotinyl-PEG-cysEHYPMTDHFNN]; also: biotinyl-PEG on the cysteine)
T5 construct: also called Nav 1.1 E1 peptide
T5 peptide: CEHYPMTDHFNN

T6: B11.2/3 Cyclo[biotinyl-PEG-cysEHYPMTEQFSS] (not fully specified (N-terminus, bridges); printed as Cyclo[biotinyl-PEG-cysEHYPMTEQFSS]; also: biotinyl-PEG on the cysteine)
T6 construct: also called Nav 1.2 and 1.3 E1 peptide
T6 peptide: CEHYPMTEQFSS

T7: B11.9 Cyclo[biotinyl-PEG-cysEHHKMEASFEK] (not fully specified; cyclic; biotinyl-PEG on the cysteine)
T7 construct: also called Nav 1.9 E1 peptide
T7 peptide: CEHHKMEASFEK

T8: B11.6 Cyclo[biotinyl-PEG-cysEHHPMTPQFEH] (not fully specified; cyclic; biotinyl-PEG on the cysteine)
T8 construct: also called Nav 1.6 E1 peptide
T8 peptide: CEHHPMTPQFEH

T9: B11.4 Cyclo[biotinyl-PEG-cysEHYPMTEHFDN] (not fully specified (N-terminus, bridges); printed as Cyclo[biotinyl-PEG-cysEHYPMTEHFDN]; also: biotinyl-PEG on the cysteine)
T9 construct: also called Nav 1.4 E1 peptide
T9 peptide: CEHYPMTEHFDN

T10: B11.8 Cyclo[biotinyl-PEG-cysEHHGMSPTFEA] (not fully specified; cyclic; biotinyl-PEG on the cysteine)
T10 construct: also called Nav 1.8 E1 peptide
T10 peptide: CEHHGMSPTFEA

B1: CA167_00932 (antibody, rabbit IgG1, V domains shown)
VH: QSLEESGGRLVTPGTPLTLTCTVSGFSLSRYWMSWVRQAPGKGLEWIGNIGGGSGSTLYAPWAKGRSTISKTSTTVDLKITSPTTEDTATYFCGRYVKNGGGYRLDLWGPGTLVTVS
VL: AAVLTQTPSSVSAAVGGTVTIKCQSSQSVYNNNEFSWYQQKPGQPPKLLIYDASKLASGVPSRFSGSGSGTQFTLTISGVQCDDVATYYCLGGYNDDTNRWAFGGGTEVVVE
notes: Rabbit monoclonal from rabbit 3822; also called antibody 932
B2: CA167_01080 (antibody, rabbit IgG1, V domains shown)
VH: QSLEESGGRLVTPETPLTLTCTASGIDLSKWPMTWVRQAPGKGLEWIGIIGRSGSTNYASWAKGRFTISKTSTTVDLKMTSPTTEDTATYFCARGGSYYDLWGQGTLVTVS
VL: AQVLTQTASPVSAAVGNTVTITCQSSQSVWKNNDLSWYQQKLGQPPKLLIYYASTLASGVSSRFKASGSGTQFTLTISDVQCDDAGTYYCVGSYDCSSADCNAFGGGTKVVVK
notes: Rabbit monoclonal from rabbit 3824
B3: CA167_00983 (antibody, rabbit IgG1, V domains shown)
VH: QSVEESGGRLVTPGTPLTLTCTVSGFSLSNYAMSWVRQAPGKGLEWIGIIGKSGSTAYASWAKGRFTISRTSTTVDLEITSPTTEDTATYFCVRFVLLWGPGTLVTVS
VL: B2 VL with N17G, T22N, W30Y, S36A, L42P, A66G, Q72E, V80A, G86A, V91L
notes: as for B2

What was measured:
[1] = biological target: T1, A32-CTLESIMNTLESEEDFRKY (cyclic); test: peptide specificity; bead-based FMAT screen on biotinylated peptide
Protocol: (§1) SLAM was performed using substantially the methods described in Tickle et al. 2009 (JALA, Vol. 14, number 5, p303-307). Briefly, SLAM cultures were set up using rabbit splenocytes or PBMC and supernatants were first screened for their ability to bind biotinylated peptide in a bead-based assay in the FMAT. […] Positives from this screen were then put through a negative screen to identify non-specific antibodies.

[2] = biological target: human Nav1.7 channel (type IX voltage-gated sodium channel alpha subunit) (human, UniProt Q15858 1-1988); test: cell-based or functional assay
B11-CPMTEEFKN (cyclic) = biological target: T2, B11-CPMTEEFKN (cyclic); test: peptide specificity; bead-based FMAT screen on biotinylated peptide
Protocol: as §1

[3] = biological target: T3, B11.7 Cyclo[biotinyl-PEG-cysPMTEEFKN]; test: peptide binding ELISA (FIG. 3K legend)
Protocol: (§2) Nunc 96 well plates were coated overnight at 4° C. in 5 ug/ml Streptavidin (Jackson 016-000-114) 100 ul/well in carbonate coating buffer. Plates were washed four times in PBS/tween and 200 ul/well of block (1% BSA in PBS) was added for 1 hour at RT. Plates were washed four times in PBS/tween and 100 ul/well of biotinylated peptide at 5 ug/ml was added for 1 hour at RT. Plates were washed four times in PBS/tween and 100 ul/well of antibody added (starting at 10 ug/ml diluting in block in half logs down the plate) for 1 hour at RT. Plates were washed four times in PBS/tween and […] goat anti rabbit Fc HRP (Jackson 111-036-046) added for 1 hour at RT. Plates were washed four times in PBS/tween and 100 ul/well TMB (3,3′,5,5′ Tetramethylbenzidine) solution added. 50 ul/well of NaF was added to stop reaction and absorbance read at 630 nm.

[4] = biological target: T4, B11.5 Cyclo[biotinyl-PEG-cysEHYNMTSEFEE]; test: peptide binding ELISA, biotinylated peptide on streptavidin
Protocol: as §2

[5] = biological target: T5, B11.1 Cyclo[biotinyl-PEG-cysEHYPMTDHFNN]; test: as above
Protocol: as §2

[6] = biological target: T6, B11.2/3 …; test: as above
Protocol: as §2

[7] = biological target: T7, B11.9 Cyclo[biotinyl-PEG-cysEHHKMEASFEK]; test: as above
Protocol: as §2

[8] = biological target: T8, B11.6 Cyclo[biotinyl-PEG-cysEHHPMTPQFEH]; test: as above
Protocol: as §2

[9] = biological target: T9, B11.4 Cyclo[biotinyl-PEG-cysEHYPMTEHFDN]; test: as above
Protocol: as §2

[10] = biological target: T10, B11.8 Cyclo[biotinyl-PEG-cysEHHGMSPTFEA]; test: as above
Protocol: as §2

[11] = biological target: T3, B11.7 Cyclo[biotinyl-PEG-cysPMTEEFKN]; test: peptide binding ELISA (FIG. 3J legend)
Protocol: as §2

Binder	binding result [1]	Nav1.7 inhibition (%) at 25 µg/ml, automated patch clamp, HEK cells [2] [%]	binding result (B11-CPMTEEFKN (cyclic))	binding result [3]	binding result [4]	binding result [5]	binding result [6]	binding result [7]	binding result [8]	binding result [9]	binding result [10]	binding result [11]
B1	binds	27	–	–	–	–	–	–	–	–	–	–
B2	–	46	binds	binds	no binding (tested: antibody starting at 10 ug/ml)	no binding (tested: antibody starting at 10 ug/ml)	no binding (tested: antibody starting at 10 ug/ml)	no binding (tested: antibody starting at 10 ug/ml)	no binding (tested: antibody starting at 10 ug/ml)	no binding (tested: antibody starting at 10 ug/ml)	no binding (tested: antibody starting at 10 ug/ml)	–
B3	–	41	binds	–	no binding (tested: antibody starting at 10 ug/ml)	no binding (tested: antibody starting at 10 ug/ml)	no binding (tested: antibody starting at 10 ug/ml)	no binding (tested: antibody starting at 10 ug/ml)	no binding (tested: antibody starting at 10 ug/ml)	no binding (tested: antibody starting at 10 ug/ml)	no binding (tested: antibody starting at 10 ug/ml)	binds
